{"source": "patent US20120121506A1", "about": "(PHILOGEN S P A, published 2012)", "binders": {"B1": {"name": "F8-SIP (V5L/K18R) (antibody)", "chain": "EVQLLESGGGLVQPGGSLRLSCAASGFTFSLFTMSWVRQAPGKGLEWVSAISGSGGSTYYADSVKGRFTISRDNSKNTLYLQMNSLRAEDTAVYYCAKSTHLYLFDYWGQGTLVTVSSGGGGSGGGSGGGGGEIVLTQSPGTLSLSPGERATLSCRASQSVSMPFLAWYQQKPGQAPRLLIYGASSRATGIPDRFSGSGSGTDFTLTISRLEPEDFAVYYCQQMRGRPPTFGQGTKVEIKSGGSGGPRAAPEVYAFATPEWPGSRDKRTLACLIQNFMPEDISVQWLHNEVQLPDARHSTTQPRKTKGSGFFVFSRLEVTRAEWEQKDEFICRAVHEAASPSQTVQRAVSVNPESSRRGGC", "modifications": "biotinylated (sites not given)", "notes": "Human monoclonal mini-immunoglobulin (small immunoprotein, SIP); It was used biotinylated at 2 ug/ml on tissue sections; also called F8 (V5L/K18R)"}}, "target": "T1, Extra Domain-A (ED-A) isoform of fibronectin in bone marrow biopsies of AML patients (human, UniProt P02751 1722-1811, limits assumed)", "T1 construct": "The antigen was not used as an isolated protein; It is the native protein in patient tissue sections; also called A-FN; EDA domain of fibronectin", "T1 sequence (P02751 1722-1811 limits assumed)": "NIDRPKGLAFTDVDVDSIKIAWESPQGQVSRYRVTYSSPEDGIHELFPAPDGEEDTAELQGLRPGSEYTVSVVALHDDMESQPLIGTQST", "assay": "immunohistochemistry, bone marrow biopsies of two patients with extramedullary AML, biotinylated SIP 2 ug/ml", "experimental": "For immunohistochemistry, biotinylated antibodies were used in small immunoprotein format (SIP) under identical conditions (2 μg/ml). Aliquots were prepared from a single batch of antibodies, frozen and used only once to ensure reproducibility of immunohistochemical stainings. Frozen tissue samples were stored at −80° C. Sections of 10 μm thickness were fixed in chilled acetone, rehydrated in TBS buffer (50 mM Tris, 100 mM NaCl, 0.001% Aprotinin, pH 7.4) and blocked with 20% fetal calf serum in TBS. The antibodies were added onto the sections in a final concentration of 2 μg/mL in 3% bovine serum albumin (BSA)/TBS solution and incubated for one hour. After washing in TBS, bound antibodies were detected with streptavidin-biotinylated alkaline phosphatase complex (Biospa, Milan, Italy) in TBS 3% BSA+2 mM MgCl₂. The Fast Red substrate (Sigma) was used for detection of phosphatase activity. Sections were counterstained with Gill's hematoxylin No. 2 (Sigma) and mounted with Glycergel mounting medium (Dako, Glostrup, Denmark).", "data": [{"binder": "B1", "values": [{"measurement": "binding result", "result": "binds"}]}]}
